A short description of data set [1]: Post-mortem biodistribution, RM-1 tumor model. The data set is classed as in vivo, male athymic nude mice. As to conditions: male, athymic nude, mouse, iv, 1.2 nmol, total radioactivity; for tissue uptake at 48 h: RM-1, male athymic nude mice, 48 h p.i., i.v. 1.2 nmol, 7.4 MBq, gamma counting, mean ± S.D., n=4. How it is done:
The media were provided by the MSK Media Preparation Core. […] Another aliquot was diluted with the medium so that 50 µL contained 1×10^6 cells.
(§1) The imaging and biodistribution studies were performed with male (RM-1 model) and female (4T1 model) athymic nude mice and the kidney-blocking experiments were performed with female SCID mice received from Charles River Laboratories (Stone Ridge, NY). After arrival, the mice were kept in the MSK vivarium for one week before any experimental handling was performed. The animals were allowed free access to water and food, and all animal care and experimental procedures were approved by the Institutional Animal Care and Use Committee (IACUC). For the subcutaneous allografts, a 1-to-1 ratio of Corning Matrigel Matrix and the cell solution was prepared and stored on ice for the injections. Each mouse received a subcutaneous injection of 100 µL (50 µL cell solution, viability > 90%, + 50 µL Matrigel) into the flank on the level of the right shoulder. The injections were performed under anesthesia (2% isoflurane, Baxter Healthcare, Deerfield, IL, USA).
The mice were intravenously injected (tail vein) with the radiolabeled pHLIP conjugates (1.2 nmol, 7.4 MBq/200 µCi, 100 µL, in sterile filtered PBS). The activity of the syringe prior to injection and after injection was used to determine the percent of injectate administered.
For the biodistribution studies the tumor-bearing mice were randomized before the injections. Only mice with suitable tumors (150–300 mm^3) were utilized. An exception was made for the 120-hour timepoint, for which only mice with smaller tumors (150 mm^3) were selected. The mice were grouped in cohorts of four. At the respective timepoint, the mice were euthanized (by CO2 asphyxiation, followed by cervical dislocation) and their blood was collected by cardiac puncture as a terminal procedure, followed by quick removal of the tumors. After this, the other organs/samples were collected. […] The exact activities of all samples of one mouse were determined by an Capintec® CRC-55tR dose calibrator. These decay-corrected measurements were used to determine a calibration factor and calibrate all counts to the corresponding activities. Activity concentrations were calculated as percentage injected dose per tissue weight (%ID/g wet tissue). All data was processed and visualized using Origin 8.5.

For data set [2], the system named is kidney uptake of [89Zr]Zr-DFOsqa-Lys-Var3. Briefly: Kidney-blocking study (PET imaging). The format is in vivo, healthy female SCID mice. The settings on record: drug IV 30 min before 7.4 MBq [89Zr]Zr-DFOsqa-Lys-Var3 (1.2 nmol); two doses per drug, n=2 each; PET 24 h p.i. vs control mice. How it is done: as §1, with “USA). Palpable tumors of similar size (100–300 mm^3) developed 5–8 days after grafting.” for “USA).”
PET images were obtained at the respective timepoints with the mice under anesthesia (2% isoflurane) on a microPET Focus 120 (Concorde Microsystems) or an Inveon PET-CT (Siemens) rodent scanner. All images were analyzed using the Medical Imaging Data Examiner Amide (version 0.9.0) or the Inveon reconstruction software suite. The counting rates in the reconstructed images were converted to percent of injected dose per weight (%ID/g) by applying a system-specific calibration factor. At the final timepoint, the remaining mice were euthanized (by CO2 asphyxiation, followed by cervical dislocation) and their tumors were resected for histological analysis.
Additional experiments were performed to investigate the influence of various kidney-uptake blockers and diuretics. Healthy female SCID mice received a “blocking agent” 30 minutes prior to the injection of [^89Zr]Zr-DFOsqa-Lys-Var3 (7.4 MBq/200 µCi, 1.2 nmol). […] The experimental set-up can be found in Table S6 .
Table S6. Summary of the kidney-blocking study. Healthy female SCID mice (2 mice per experiment/ dosage + 2 control mice without treatment, total of 22 mice) received a blocking agent intravenously 30 minutes prior to the injection of 7.4 MBq/200 µCi [89Zr]Zr-DFOsqa-Lys-Var3 (1.2 nmol pHLIP).
The drug dose was calculated as weight of drug (mg) per weight of mouse (kg). A potential kidney […]
calibrated images to the control mice (24 hours post injection). No drug led to a significant reduction […]
drug (IV 30 min before dose [mg/kg] effect on kidney mechanism of action [89Zr]Zr-pHLIP) (n=2) uptake […]
and water from the body; acts as a diuretic […]
organic anion transporter; blocks the uptake of organic anions […]
tubule via inhibition of the Na/Cl symporter; acts as a diuretic […]
increased – serum levels decreased

Data on five compounds can be found in publication PMC9160799, “PET Imaging of Acidic Tumor Environment With ^89Zr-labeled pHLIP Probes” (Frontiers in Oncology, 2022).

Entries after “also recorded” stand apart in the source; their conditions may differ. Like-named read-outs stand apart in the source and are kept apart here. Square brackets hold non-standard residues; d marks the D form. Peptide text beside a SMILES is read from it. * marks the point of attachment. X1 = CC(=O)N(O)CCCCCNC(=O)CCC(=O)N(O)CCCCCNC(=O)CCC(=O)N(O)CCCCCNC(=O)CCC(=O)N(O)CCCCCNC(=S)Nc1ccc(NC(=S)*)cc1

Regarding `CC[C@@H](C)[C@@H](NC(=O)[C@H]1CCCN1C(=O)[C@@H](CC(N)=O)NC(=O)[C@@H](CCC(N)=O)NC(=O)[C@@H](CCC(=O)O)NC(=O)[C@@H](CCCCNC(=S)Nc1ccc(NC(=S)NCCCCCN(O)C(=O)CCC(=O)NCCCCCN(O)C(=O)CCC(=O)NCCCCCN(O)C(C)=O)cc1)NC(=O)[C@@H](C)NC(C)=O)C(=O)N[C@H](Cc1ccc(O)cc1)C(=O)N[C@H](Cc1c[nH]c2ccccc12)C(=O)N[C@H](C)C(=O)N[C@H](CCCNC(=N)N)C(=O)N[C@H](Cc1ccc(O)cc1)C(=O)N[C@H](C)C(=O)N[C@H](CC(=O)O)C(=O)N[C@H](Cc1c[nH]c2ccccc12)C(=O)N[C@H](CC(C)C)C(=O)N[C@H](Cc1ccccc1)C(=O)N[C@@H](C(=O)N[C@@H](C(=O)N1CCC[C@@H]1C(=O)N[C@H](CC(C)C)C(=O)N[C@H](CC(C)C)C(=O)N[C@H](CC(C)C)C(=O)N[C@H](CC(C)C)C(=O)N[C@H](CC(=O)O)C(=O)N[C@H](CC(C)C)C(=O)N[C@H](C)C(=O)N[C@H](CC(C)C)C(=O)N[C@H](CC(C)C)C(=O)N[C@@H](C(=O)N[C@H](CC(=O)O)C(=O)N[C@H](C)C(=O)N[C@H](CC(=O)O)C(=O)N[C@H](CCC(=O)O)C(=O)NCC(=O)N[C@@H](C(=O)NCC(=O)O)[C@H](C)O)C(C)C)[C@H](C)O)[C@H](C)O` (89Zr complex, metal not drawn) [DFO-Lys-WT], the tissue uptake at 48 h in data set [1] (blood, read-out: Blood uptake) stood at 0.1 ± 0.03 %ID/g; in data set [1] (tibia, read-out: Tibia uptake), 2.3 ± 0.5 %ID/g.
Turning to `NS(=O)(=O)c1cc(C2(O)NC(=O)c3ccccc32)ccc1Cl` (stereo not drawn) [chlorthalidone], in data set [2], the “effect on kidney uptake” value was “not significant; also recorded: none of these drugs led to a significant reduction of kidney uptake”.
On the same count and under the same terms, to `N=C(N)NC(=O)c1nc(Cl)c(N)nc1N` [amiloride] belongs “not significant; also recorded: none of these drugs led to a significant reduction of kidney uptake”.
Regarding `CC(=O)N[C@H](C)C(=O)N[C@H](CCCCNC(=S)Nc1ccc(NC(=S)NCCCCCN(O)C(=O)CCC(=O)NCCCCCN(O)C(=O)CCC(=O)NCCCCCN(O)C(=O)CCC(=O)NCCCCCN(O)C(C)=O)cc1)C(=O)N[C@H](CC(=O)O)C(=O)N[C@H](CC(=O)O)C(=O)N[C@H](CCC(N)=O)C(=O)N[C@H](CC(N)=O)C(=O)N1CCC[C@@H]1C(=O)N[C@H](Cc1c[nH]c2ccccc12)C(=O)N[C@H](CCCNC(=N)N)C(=O)N[C@H](C)C(=O)N[C@H](Cc1ccc(O)cc1)C(=O)N[C@H](CC(C)C)C(=O)N[C@H](CC(=O)O)C(=O)N[C@H](CC(C)C)C(=O)N[C@H](CC(C)C)C(=O)N[C@H](Cc1ccccc1)C(=O)N1CCC[C@@H]1C(=O)N[C@@H](C(=O)N[C@H](CC(=O)O)C(=O)N[C@@H](C(=O)N[C@H](CC(C)C)C(=O)N[C@H](CC(C)C)C(=O)N[C@H](CC(C)C)C(=O)N[C@H](CC(=O)O)C(=O)N[C@H](CC(C)C)C(=O)N[C@H](CC(C)C)C(=O)N[C@H](Cc1c[nH]c2ccccc12)C(=O)N[C@H](C)C(=O)O)[C@H](C)O)[C@H](C)O` [DFO*-Lys-Var3] (Ac-[dA][dK](X1)[dD][dD][dQ][dN][dP][dW][dR][dA][dY][dL][dD][dL][dL][dF][dP][dT][dD][dT][dL][dL][dL][dD][dL][dL][dW][dA]-OH; C-terminus assumed), in data set [1] (in vivo, read-out: Tibia uptake), the tissue uptake at 48 h was 1.1 ± 0.5 %ID/g.
Take `CC[C@@H](C)[C@@H](NC(=O)[C@H]1CCCN1C(=O)[C@@H](CC(N)=O)NC(=O)[C@@H](CCC(N)=O)NC(=O)[C@@H](CCC(=O)O)NC(=O)[C@@H](CCCCNC(=S)Nc1ccc(NC(=S)NCCCCCN(O)C(=O)CCC(=O)NCCCCCN(O)C(=O)CCC(=O)NCCCCCN(O)C(C)=O)cc1)NC(=O)[C@@H](C)NC(C)=O)C(=O)N[C@H](Cc1ccc(O)cc1)C(=O)N[C@H](Cc1c[nH]c2ccccc12)C(=O)N[C@H](C)C(=O)N[C@H](CCCNC(=N)N)C(=O)N[C@H](Cc1ccc(O)cc1)C(=O)N[C@H](C)C(=O)N[C@H](CC(=O)O)C(=O)N[C@H](Cc1c[nH]c2ccccc12)C(=O)N[C@H](CC(C)C)C(=O)N[C@H](Cc1ccccc1)C(=O)N[C@@H](C(=O)N[C@@H](C(=O)N1CCC[C@@H]1C(=O)N[C@H](CC(C)C)C(=O)N[C@H](CC(C)C)C(=O)N[C@H](CC(C)C)C(=O)N[C@H](CC(C)C)C(=O)N[C@H](CC(=O)O)C(=O)N[C@H](CC(C)C)C(=O)N[C@H](C)C(=O)N[C@H](CC(C)C)C(=O)N[C@H](CC(C)C)C(=O)N[C@@H](C(=O)N[C@H](CC(=O)O)C(=O)N[C@H](C)C(=O)N[C@H](CC(=O)O)C(=O)N[C@H](CCC(=O)O)C(=O)NCC(=O)N[C@@H](C(=O)NCC(=O)O)[C@H](C)O)C(C)C)[C@H](C)O)[C@H](C)O` [DFO-Lys-WT]: the tissue uptake at 48 h is 0.03 ± 0.03 %ID/g in data set [1] (in vivo, read-out: Brain uptake); 14.2 ± 1.2 %ID/g in data set [1] (in vivo, read-out: Kidneys uptake); 14.8 ± 4.7 %ID/g in data set [1] (in vivo, read-out: Liver uptake); 11.5 ± 0.4 %ID/g in data set [1] (in vivo, read-out: Lungs uptake); 0.3 ± 0.08 %ID/g in data set [1] (in vivo, read-out: Muscle uptake); 0.9 ± 0.4 %ID/g in data set [1] (in vivo, read-out: Pancreas uptake). Further, the tissue uptake at 48 h was 1.5 ± 0.2 %ID/g in data set [1] (in vivo, read-out: Skin uptake); 25.8 ± 5.5 %ID/g in data set [1] (in vivo, read-out: Spleen uptake); 1.6 ± 0.1 %ID/g in data set [1] (in vivo, read-out: Tumor uptake). For the same compound, in data set [1] (tumor / muscle, RM-1 model, 48-hour timepoint, read-out: tumor-to-muscle uptake-ratio), the tissue to tissue ratio at 48 h was found to be 5.5 ± 1.5.
